Results from publication PMC10511788, “Solution structure of the HOIL-1L NZF domain reveals a conformational switch regulating linear ubiquitin affinity” (The Journal of Biological Chemistry, 2023).

Molecular target: T1, M1-linked di-ubiquitin (UniProt P0CG48 1-76; P0CG48 1-76)
T1 construct: ubiquitin, distal (N-terminal) moiety, M1-G76, its G76 joined by a peptide bond to M1 of the next moiety; ubiquitin, proximal (C-terminal) moiety, M1-G76, with the free C-terminal carboxylate; Two ubiquitin units head to tail on one chain; also called linear di-Ub; linear (head-to-tail) di-Ub
Assay: ITC; 298 K, MicroCal iTC200; linear di-Ub (1 mM) in the syringe, HOIL-1L NZF (100 uM) in the cell (several experiments at half of these); 20 mM HEPES pH 7.0, 50 mM sodium chloride, 1 mM TCEP; one set of sites model; three independent experiments
Settings: both partners purified

B1: mouse HOIL-1L NZF domain (residues Pro192-Gln250) T207D (domain or fragment)
chain: GPLGSPEPVGWQCPGCTFINKPDRPGCEMCCRARPETYQIPASYQPDEEERARLAGEEEALRQYQQ
notes: HOIL-1L, mouse, NZF domain with tail, residues Pro192-Gln250, point mutant T207D; Point mutation made by PCR on the plasmid of m1; also called phosphomimetic HOIL-1L NZF; T207D HOIL-1L NZF; source: E. coli, autoinduction in N-5052 media, purified; not shown: GST, N-terminal, cleaved
Question: How did the Kd turn out when B1 was run?
Answer: 10.3 µM
